The results in this text go back to patent publication EP1378570B1.

A word on the Kd: it is the concentration at which binding is half-saturated. A high value points to weaker binding.

The target in this assay is murine Flk-1 receptor tyrosine kinase (fetal liver kinase 1), full-length, transiently expressed in COS-1 cells from pCMV-Flk-1 (mouse) (UniProt P35918). Kind of assay: competition of unlabeled VEGF (0 to 7 x 10^-9) with 10 pM 125I-VEGF on COS-1 cells expressing Flk-1; analysis by Munson and Rodbard.
UniProt P35918, sequence (P35918 other isoform, or with tags, fused parts or gaps limits assumed): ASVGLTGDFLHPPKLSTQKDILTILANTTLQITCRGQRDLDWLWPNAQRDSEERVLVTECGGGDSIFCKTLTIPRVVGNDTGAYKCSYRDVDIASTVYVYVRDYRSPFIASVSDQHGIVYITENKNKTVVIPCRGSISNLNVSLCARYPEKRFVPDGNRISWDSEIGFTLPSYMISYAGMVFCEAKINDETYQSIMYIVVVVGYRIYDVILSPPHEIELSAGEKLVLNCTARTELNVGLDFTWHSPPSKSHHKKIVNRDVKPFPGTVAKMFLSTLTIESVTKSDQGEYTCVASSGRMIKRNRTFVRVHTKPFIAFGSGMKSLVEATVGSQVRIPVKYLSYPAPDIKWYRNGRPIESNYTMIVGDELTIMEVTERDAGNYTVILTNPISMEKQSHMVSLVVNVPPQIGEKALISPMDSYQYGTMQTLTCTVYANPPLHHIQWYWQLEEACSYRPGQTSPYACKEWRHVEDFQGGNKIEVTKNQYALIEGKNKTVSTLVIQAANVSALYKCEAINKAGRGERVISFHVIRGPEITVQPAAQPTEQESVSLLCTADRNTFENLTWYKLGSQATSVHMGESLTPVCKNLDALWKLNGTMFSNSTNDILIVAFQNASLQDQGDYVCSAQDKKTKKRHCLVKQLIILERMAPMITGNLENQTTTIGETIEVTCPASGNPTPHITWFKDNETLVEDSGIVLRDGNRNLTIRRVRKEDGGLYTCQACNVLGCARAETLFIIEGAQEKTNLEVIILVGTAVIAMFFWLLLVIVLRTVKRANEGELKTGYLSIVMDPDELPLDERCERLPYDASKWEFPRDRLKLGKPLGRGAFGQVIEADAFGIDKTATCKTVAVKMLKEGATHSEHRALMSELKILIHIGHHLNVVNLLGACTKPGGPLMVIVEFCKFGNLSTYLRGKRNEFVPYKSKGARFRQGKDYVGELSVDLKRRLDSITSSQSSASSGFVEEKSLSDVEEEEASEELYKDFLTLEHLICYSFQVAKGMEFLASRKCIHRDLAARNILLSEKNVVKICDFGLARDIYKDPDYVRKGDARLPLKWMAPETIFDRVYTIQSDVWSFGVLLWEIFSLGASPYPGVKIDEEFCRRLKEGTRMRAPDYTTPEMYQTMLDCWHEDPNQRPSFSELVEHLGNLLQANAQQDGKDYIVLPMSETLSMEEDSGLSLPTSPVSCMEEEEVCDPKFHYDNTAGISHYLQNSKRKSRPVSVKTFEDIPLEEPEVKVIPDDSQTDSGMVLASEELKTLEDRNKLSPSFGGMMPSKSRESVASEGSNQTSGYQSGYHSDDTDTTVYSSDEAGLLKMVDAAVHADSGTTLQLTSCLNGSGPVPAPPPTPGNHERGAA

In turn, “unlabeled VEGF (164 amino acid form), partially purified from conditioned media of COS-1 cells transiently expressing VEGF (from UniProt Q00731 1-392) (ligand)” came in with a Kd of 0.1 nM.
